“And” between values parts separate entries of the source, which are not always exact repeats. Equal values may be shown once.
B1: rCSTC: human recombinant cystatin C (CST3), cysteine proteinase inhibitor; purchased from R&D Systems (protein, UniProt P01034 27-146, looked up)
Cystatin-C: SSPGKPPRLVGGPMDASVEEEGVRRALDFAVGEYNKASNDMYHSRALQVVRARKQIVAGVNYFLDVELGRTTCTKTQPNLDNCPFHDQPHLKRKAFCSFQIYAVPWQGTMTLSKSTCQDA
B2: rCST9: human recombinant cystatin 9, cysteine proteinase inhibitor; purchased from American Research Products, Inc. (protein, UniProt Q5W186 29-159, looked up)
Cystatin-9: WCSEEEMGGNNKIVQDPMFLATVEFALNTFNVQSKEEHAYRLLRVLSSWREDSMDRKWRGKMVFSMNLQLRQTVCRKFEDDIDNCPFQESLELNNVRQGISFPQVHSCGCCMGCGVGTGAADKAIPRDKGK

Columns and labels:
gut microbiome [1] = test: Gut microbiome by 16S next generation sequencing, infection and thermal injury model; format: in vivo, Balb/c mice
Experimental: Mice were intraperitoneally (i.p.) challenged with 1×10^7 CFU of an intestinal isolate E. coli (EC) and 1000 ng of flagellin then treated i.p. with 500 pg rCST9 and/or 50 pg rCSTC followed by a 30% full-thickness thermal injury (30% TBSA). […] Additional groups of infected, rCST treated and/or thermally injured mice were euthanized at 24 and 48 h post-thermal injury to collect serum and harvest intestinal samples. Cytokines were quantified in the serum and analysis of the gut microbiome.
Gut samples were harvested at 24 and 48 h from the same 4 mouse groups euthanized to collect sera as described above. As we reported in a previous publication (8), briefly, approximately 3 mm^3 pieces of the intestine (close to the cecum) were sterilely harvested from each mouse. For gut microbiome analysis, DNA from intestinal samples was extracted from samples lysed in MagNA Pure DNA Tissue Lysis Buffer followed by automated extraction on a MagNA Pure 96 platform (Roche). The isolated DNA was amplified using a panel of five “universal” primer pairs (Ion Xpress Barcodes) that created overlapping 400 bp DNA fragments covering 95% of the bacterial 16S rDNA. Barcoded amplimers were mixed at equimolar ratios and then subjected to Ion Torrent NGS (Thermo Scientific). Average read length was >300 bases with sequence generated from both strands. Reads were filtered and binned according to Ion Xpress barcode with Ion Torrent Suite software (v 4.0.2). Sequencing reads were then further processed using Galaxy software where each barcode was trimmed to remove the primer sequence. The 16S sequences were compared to the SILVA database using bowtie 2 software to yield species or genera level matches to return the hit-rate. Where multiple calls to the same genera were made the number of hits were added accordingly. Hit rates were converted to percentage of total to give an overall ratio of the sequenced microbiome.

gut microbiome [2] = test: Gut microbiome in gavaged mice given 30% full-thickness burn; format: in vivo, Balb/c mice; conditions: gavage 50 pg/mouse, then 30% full-thickness burn
From the text: (§1) It is known that intestinal leakage of intestinal bacteria and their product occurs following burn injury likely contributing to systemic infection and sepsis.

NDM-1 Kp = test: LD90 NDM-1 Kp pneumonia murine model, survival; format: in vivo, Balb/c mice; conditions: for increased survival of Kp infected mice: single i.p. dose, 50 pg/mouse
From the text: To establish the optimal CST route, timing, and dosage regimen against MDR NDM-1 Kp-induced pneumonia, Balb/c mice (n=10-20 mice/gp) were infected with an i.n. LD90 and treated at various times and doses as depicted in Table 1. Doses included i.n. and/or i.p. single rCST9, rCSTC or a combination of rCST9 and rCSTC. Mice that were infected with NDM-1 Kp but were not treated served as controls. rCST treatments by routes, doses, or as a combined therapy were studied to select an optimal regimen.
Evaluate optimal timing and dosage of rCST-9 and/or PEG-rCST9 administration post-infection. Balb/c mice (n=10-20 mice/gp) were intranasally (i.n.) infected with approximately 1.82×10^8 CFU/mouse of Kp 2146 (as established hereinabove) then treated i.n. or i.p. with rCST9, human recombinant cystatin C (rCSTC) or a combination of rCST9 and rCSTC as depicted in Table 1. Kp infected alone served as controls. […] Therefore, as a comparative control to rCST9, the inventors evaluated the effectiveness of rCSTC against pneumonia using the same doses of 50 and/or 500 pg/mouse.
The potential for rCST9/rCSTC treatment to extend the period before successful antibiotic intervention was initiated was determined. For these evaluations, suboptimal doses of colistin were used to determine the extent of protection afforded by rCSTs as well as to minimize side effects/toxicity caused by this antibiotic (n=10 mice/gp). Doses, timing, and route of colistin were chosen based on efficacy studies of colistin in a mouse model of severe, established MDR pneumonia or a very low dose of colistin then adjusted to suboptimal levels for this study. LD90 NDM-1 Kp-challenged mice were treated with the rCST9/rCSTC 3 d i.p. treatment and then given 2 doses of colistin at 20 mg/kg/day or 1.25 mg/kg/day on day 4 and 5 PI.
Mouse model of pneumonia and CST treatments. Eight-week old female Balb/c mice weighing between 21 and 24 grams (Jackson Laboratories) were housed in an Association for Assessment and Accreditation for Laboratory Animal Care (AAALAC)-approved housing facility and permitted to adjust to their environment for 7 d prior to procedures, receiving free access to food and water throughout the study. All procedures were approved by the University of Texas Medical Branch IACUC and performed humanely with minimal suffering. […] One hour PI, mice were administered an i.n. dose of rCST9/rCSTC (50 pg of each) and then, this group of mice was given an i.p. injection of rCST9/rCSTC (500 pg of each) 3 d PI. A parallel group of infected mice received only a single i.p. dose of rCST9/rCSTC, PEG-rCST9/rCSTC (500 pg of each), or PEG-rCST9 (500 pg) alone 3 d PI. NDM-1-Kp infected mice alone or uninfected mice served as controls. Survival was observed up to 15 days post treatment. Additional groups (n=4 mice/group) of infected and CST-treated mice were euthanized at selected time points (24 h, 72 h, 5 and/or 10 d PI) to harvest lungs. Additional groups were treated with i.n. rCSTs (50 pg of each) as described above but they were euthanized at 30 min, 1 h and 3 h to collect lungs for the quantification of lipid peroxidase by-product, known as malondialdehyde (MDA), as described below.
Additional groups of mice (n=15 mice/group) were treated with the optimal CST treatment regimens of an i.n. dose of rCST9/rCSTC (50 pg of each), followed by an i.p. injection of rCST9/rCSTC (500 pg of each) 3 d PI or the single i.p. dose of rCST9/rCSTC (500 pg of each). At 4 d PI, mice were given 2 separate i.p. injections of colistin (JHP Pharmaceuticals, LLC; colistimethate sodium; 20 mg/kg/mouse or 1.25 mg/kg/day) 8 h apart for 2 d.

[3] = system: monocyte-derived macrophages (MDM) infected with NDM-1-producing Kp; test: Cytokine secretion from NDM-1 Kp-infected MDM; format: cell-based, human; conditions: rCSTC 50 pg, rCST9 25 or 50 pg, individually and in combination; vs Kp-infected MDM
IL-8 = IL-8 secretion from intestinal epithelial cells exposed to E. coli 083:H1 and/or flagellin; format: cell-based; conditions: after exposure to enteric E. coli 083:H1 and/or flagellin
From the text: as §1

MIP-1 and IL-8 = test: Systemic cytokines in gavaged mice given 30% full-thickness burn; format: in vivo, Balb/c mice; conditions: gavage 50 pg/mouse, then 30% full-thickness burn; specifically in the lungs
From the text: as §1

[4] = individual treatment, 24 and 48 h post-burn
[5] = 50 pg per mouse, i.n., 1 h pre-infection
[6] = 50 pg per mouse, i.n., 3 d post-infection
[7] = 50 pg per mouse, i.p. then i.p., 1 h and 3 d post-infection
[8] = 500 pg per mouse, i.n., 1 h and 3 d post-infection
[9] = 500 pg per mouse, i.n., 1 h pre-infection

| Molecule | Bacteroidales S24-7 in gut microbiome (gut microbiome [1]; 24 h post-burn) | Lachnospiraceae family in gut microbiome (gut microbiome [1]; 24 h post-burn) | gut microbiome profile (gut microbiome [1]; 48 h post-burn) | gut microbiome profile (gut microbiome [1]; [4]) | gut microbiome (gut microbiome [2]) | increased % survival of Kp LD90 mice (NDM-1 Kp; [5]) | increased % survival of Kp LD90 mice (NDM-1 Kp; [6]) [%] | increased % survival of Kp LD90 mice (NDM-1 Kp; [7]) [%] | increased % survival of Kp LD90 mice (NDM-1 Kp; [8]) [%] | increased % survival of Kp LD90 mice (NDM-1 Kp; [9]) [%] | increased survival of Kp infected mice (NDM-1 Kp) [%] | cytokine secretion from infected MDM [3] | IL-8 secretion from intestinal epithelial cells (IL-8) | systemic MIP-1 and IL-8 secretion (MIP-1 and IL-8) |
| --- | --- | --- | --- | --- | --- | --- | --- | --- | --- | --- | --- | --- | --- | --- |
| B1 | noticeable but moderate increase | proportionate decrease | nearly equivalent to sham controls | preserved the gut microbiome that was equivalent to sham controls | preserved the gut microbiome | increased survival and 20% | 10 | 5 | 10 | 10 | 15 | restrained cytokine secretion | decreased IL-8 secretion | decrease in systemic MIP-1 and IL-8 secretion |
| B2 | – | – | – | preserved the gut microbiome that was equivalent to sham controls | preserved the gut microbiome | increased survival and 10% | 10 | 5 | 10 | 10 | 15 | restrained cytokine secretion | decreased IL-8 secretion | decrease in systemic MIP-1 and IL-8 secretion |

From patent publication US12053511B2, “Cystatin C and Cystatin 9 to treat gut inflammation caused by thermal injury” (priority 2016, dated 2024)
